{
  "source": "paper PMC10075959",
  "biological_target": "FL-N nucleocapsid protein (SARS-CoV-2, UniProt P0DTC9 1-419)",
  "assay": "sedimentation velocity AUC",
  "conditions": "protein: commercial; chain copies: 2; single strand",
  "data": [
    {"binder": "TTTTTTTTTT (ssDNA)", "note": "[T10]", "values": [
      {"measurement": "binding result", "value": "binds"}
    ]}
  ]
}
